Assay: yeast display, Sf9 membrane polyspecificity reagent, FACS + sequencing; frameworks hold sequencing errors
Summary of the method: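 Galactose induction of a Saccharomyces cerevisiae BJ5465 synthetic nanobody display library ran 36–48 hours. The cells were then stained for 1 hour at 4 °C with 10% biotinylated, detergent-solubilized Sf9 membrane reagent, pulled down on streptavidin microbeads and FACS-sorted into low and high (top ~1%) gates on expression and reagent-binding fluorescence. Labels for polyreactivity follow the gate of origin.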

Row | Sequence | polyreactivity (PSR sort gate)
1 | QVQLVESGGGLVQAGGSLRLSCAASGFTFSEYVMGWYRQAPGKERELVAVITSGSSTYYADSVKGRFTISRDNAKNTVYLQMNSLTPEDTAVYYCAAESYFFSPRTREKFDYWGQGTQVTVSA | low polyreactivity
2 | QVQLVESGGGLVQAGGSLRLSCAASGSTFRRNAMGWYRQAPGKERELVASITSGGSTYYADSVKGRFTISRDNAKNTVYLQMNSLKPEDTAVYYCAVVWRGGYRWPYEYWGQGTQVTVSS | low polyreactivity
3 | QVQLVESGVGLVQAGCSLRLSCAASGFTNAMGWYRQAPGKERELVAAISYSGDSTNYADSLKGRFTISRDNAKNTVYLQMNSMKPVDTAVYYCNASSPYDYDWGQGTQVTVSS | low polyreactivity
4 | QVQHVESGGCLVQAGGILRLSCAASGSIFQSNTMGWYRQAPGKVRELVAYISNGGTTTYANSVKGRFTISRDNAKTTVYLQMNSLKPEDTAVYYCATYYWQYYEYDYWGQGTQVTVSS | low polyreactivity
5 | QVQLVETGGGLVQAGGSLRLSCAPSGITFYVYAMGWYTQAPGKERELVAAISSGSSTYYADSVKGSFTISRDNAKNTVYLQMNSLKPEDTAVYYCAARYRKYLSEYCGQGTQVTVSS | high polyreactivity
6 | QVQLVESGGGLVQAGGSLRLSCAASGIIFGTYAMGWYRQAPGKERELVAAISSGGRTYYADSVKGRFTISRDNAKNTVYLQMNSLKPEDTAVYYCNRPPWSRGSNYWGQGTQVTVSS | high polyreactivity
7 | QVQLVESGGGLVQAGGSLRLSCAASGRSFDVNAMGWYRQAPGKERELVAAISTRGGGTYYADSVKGRFTISRDNAKTTVYLQMNSLKPEDTAVYYCNVVRRYGGRGFDYWGQGTQVTVSS | low polyreactivity
8 | QVQLVESGGGLVQAGGSLRLSCAASGSTFQRYAMGWYRQAPGKERELVAAITSGGSTYYADSVKGRFTISRDNAKNTVYLQMISLKPEDTAVYYCNAAWFYRYGYWGQGTQVTVSS | high polyreactivity
9 | QVQLVESGGGLVQAGGSLRLSCAASGSTFLSYAMGWYRQAPGKEREMVAAISYSAGSTYYADSVKGRFTISRDNAKNTVYLQMNSLKPEDTAVYYCGAVQLVPGYVDSNDYYWGQGTQVTVSS | low polyreactivity
10 | QVQLVESGGGLVQAGGSLRLSCAASGLIFQVYDMGWYRQAPGKERELVAATSSGSKTNYADSVKGRFTISRDNAKNTVYLQMNSLKPEDTAVYYCAAGGPSTLDDYWGQGTQVTVSS | low polyreactivity
11 | QVQLVESGGGLVQAGGSLRLSCAASGSTFDRNVMGWYRQAPGKERELVAAISFSGGSTYYADSVKGRFTISRDTAKNTVYLQMNSLKPEDTAVYYCAADDGYSYIYAAGDYWGQGTQVTVSS | low polyreactivity
12 | QVQLVESGGGLVQAGGSLRLSCAASGRIFGTYAMGWYRQAPGKERELVAAITQSGGRTYYADSVKGRFTISRDNAKNTVYLQMNSLKPEDTAVYYCAADSGKRRYGYYYWGQGTQVTVSS | high polyreactivity
13 | QVQLVESGGGLVQAGGSLRLTCAASGNTFGNYAMGWYRQAPGKERELVASISWNVGSTYYADSVKGRFTISRDNAKNTVYLQMNSLKPEDTAVYYCARGYDRPRVATFHRFDYWGQGTQVTVSS | low polyreactivity
14 | QVQLVESGGGLVQAGGSLRLSCAASGRIFIRNAMGWYRQAPGKERELVAAITWSGGGTYYADSVKGRFTISRDNAKNTVYLQMNSLKPEDTAVYYCNVDITGYEDDYWGQGTQVTVSS | low polyreactivity
15 | QVQLVESGGGLVQAAGSLRLSCAASGSTFTLNAMGWNRQAPGKERELVAAITSGGRTKYADSVKGRFTISRDNAKNTVYLQMNSLKPEDTAVYYCAATFAGGYGYWGQGTQVTVSS | high polyreactivity
16 | QVQLVESGGCLVQAGGSLRLSCAASRRIYYYTMGWYRQPPGKERELGATITSSGSSTYYADSVKGRFTISRDNAMNTVYLQMNSLKPEDTAVYYCAAGDRRYQRRYYYWGQGTQVTVSS | high polyreactivity
17 | KVQLVESGGGLVQAGGSLRISCAASGRICWGYVMGWYRQAPGKERELVAAISSGGDTHYADSVKGRFTISRDNAKNTVYLQMNSLKPEDTGVYYCAARPNFTPYEYGYWGQGTQVTVSS | low polyreactivity
18 | QVQLVESGGGLVQAGGSLRLSCAASGSTFGRNAMGWYRQAPGKERELVAAISWRSTPTYYADSVKGRFTISRDNAKNTVYLQMNSLKPEDTAVYYCAVYYYYPSTNGYHYDYWGHGTQVTVSS | high polyreactivity
19 | QVQLVESGGGLVQAGGSLRLSCAASGSTFFPNAMGWYRQAPGKERELIADISISGGSTRYADSVKGRFTISRDNEKNTVYLQMNSLKPEDTAVYYCAVRRSAFYARFGRNYWGQGTQVTVSS | low polyreactivity
20 | QVQLVESGGGLVQAGGSLRLSCAASGSIFIYYAMGWYRQPPGKERELVAAISYSDGDTYYADSVKGRFTISRDNAKNTVYLQMNSLKPEDTAVYYCAAEVTLSYDVGWEDYWGQGTQVTVSS | high polyreactivity
21 | QVQLVESGGGLVQAGGSLRLSCAASGSTFYPYAMGWYRQAPGKERELVAAINLRADSTNYADSVKGRFTISRDNAKNTVYLQMNSLKPEDTAVYYCAARVSYRSGRRPLWAYNSWGQGTQVTVSS | high polyreactivity
22 | QVQLVESGGGLVQAGGSLRLICAASGRTFRVYAMGWYRQAPGKERELVASISRRGASTYYADSVKGRFTISRDIAKNTVYLQMNSLKPEDTAVYYCAADRRYYSVSPNTEFEYWGQGTQETVSS | high polyreactivity

Row | Sequence | polyreactivity (PSR sort gate)
23 | QVQLVESGVGLVQAGGSLRLSCADSGFTFFHYARGWYIQAPGKERELVAAIDYSAGSTYYADSVKGRFTISRDNAKNTVYLQMNSLKPEDTAVYYCAADARTSRGRRYYYWGQGTQVTVSS | low polyreactivity
24 | QVQLVESGGGLVQAGGSLRLSCAASGSTFFGYVMGWDRQAPGKERELVAAIRSSGGSTYYADSVKGRFTISRDNAKNTVYLQINSLKPEDTAVYYCAASYRYDAYSHYDYWGQGTQVTVSS | low polyreactivity
25 | QVQLVESGGGLVQAGGSLRLSCAASGSTFGRYVMGWYRQAPGKERELVAAISGSGGSTYYADSVKGRFTISRDNAKNTVYLQMNSLKPEDTAVYYCAARVAHYEYYWGQGTQVTVSS | high polyreactivity
26 | QVQIVESGGGLVQAGGSLRVSCAASGSIFKIYAMGWYRQAPGKERELVASITGSGGSTYYADSVKGRFTISRDNAKNTVYLQMNSLKPEDTAVYYCAAAVLGSSTSEVDPDRPEYYYWGHGTQVTVSS | low polyreactivity
27 | QVQLVESGGGLVQAGGSLRLSCAASGSTIYPNAMGWYRQAPGKERELVAVISSGGSTYYADSVKGRFTISRDNAKNTVYLLMNSLKPVDTAVYYCAADRGTVSYLYSPRAVDYWGQGTQVTVSS | low polyreactivity
28 | QVQLVESGGGLVQAGGSLRLSCAASGRTFFGYAMGWYRQAPGKERELVATISGSGASTYYADSVKGRFTISRDNAKNTVYLQMNSLKPEDTAVYYCAARYVTTRHSRYYYWGQGTQVTVSS | high polyreactivity
29 | QVQLVESGGGLVQAGGSLRLSCAASGLIFAYNTMGWYRQAPGKERELVAGITSSGSTYYADSVKGRFTISRDNAKNTVYLQMNSLKPEDTAVYYCAAEWDDGRSWYWYYLVGFEYWGQGTQVTVSS | high polyreactivity
30 | QVQLVESGGRLVQAGGSLRLSCAASGSIFTVYAMGCYRQAPGKERELVAAIRRTGSRTYYADSVKGRFTNSRDNAKNTVYLQMNSLKPEDTAVYYCAADVWFDRRSVRLNYWGQGTQVTVSS | high polyreactivity
31 | QVQLVESGGGLVQAGGSLRLSCAASGRTFWYYAMGWYRQSPGKERELVAVITSGSSTYYADSVKGRFTISRDNAKNTDYLQMTSLKPEDTAVYYCAVGRTYRRYSAASYNYWGQGTQVTVSS | high polyreactivity
32 | QVQLVESGGGLVQAGGSLRLSCAASGYTFKTYAMGWYIQAPGKERELVAAISGSGGSTYYADSVKGRFTISRDNAKNTVYLQMNSLKPEDTEVYFCAATNWWGTEYDYWGQGTQVTVSS | high polyreactivity
33 | QVQLVESGGGLVQAGGSLRLICAASRFTYYRNVMGWYRQAPGKERELVAPISRRGDRTYADSVKGRFTISRDNAKNTVYLQMNSLKPEDTAVYYFAPTPYSYWTRYYYWGQGTQVTVTS | high polyreactivity
34 | QVQLVESGGGLVQAGGSLRLSCAASGFIFRYYAMGWYRQAPGKERELVAAISRTGGSTYYADSVKGRFTISRDNAKNTVYLQMNSLKPEDTAVYYCAADWWAWRAYYYWGQGTQVTVSS | high polyreactivity
35 | QVQLVESGGGLVQAGGSLRLSCAASGSTFVVYAMGWYRQAPGKERELVAAIDLSVGDTYYADSVKGRFTISRDNAKNTVYLQMNSLKPEDTAVYYCNVAVYYWRWIYGYWGQGTQVTVSS | low polyreactivity
36 | QVQLVESGGGLVQAGGSLRLSCAASGSIFPFYAMGWYRKAPGKERELVAAISDRGGSTYYADSVKGRFTISRDNAKNTVYLQMNSLKPDDTAVYYCAKGAEVSQGYTDEYDYWGQGTQVTVSS | low polyreactivity
37 | QVQLVESGRGLVQAGGSLRLSCAASGSIFVDYTMGWYRQAPGKERELVARITSGGSTYYADSVKGRFTISRDNAKNSVYLQMNSLKPEDTAVYYCAARPYYRYRNSWREQYYYWGQGTQVTVSS | high polyreactivity
38 | QVQLVESGGCLVQAGGSLRLSCAASGGIFGKYAMGWYRQAPGKESELVAAITWNGVSTYYADSVKGRFTISRDNAKNTVYLQMNSLKPEDTAVYYCAKASLPYRPDSTPDRRYDYWGQGTQVTVSS | high polyreactivity
39 | QVQLVESGGGLVQAGGSLRLSCAASGRIFYNYAMGWYRQAPGKERELVAAISGSGGSTYYADSVKGRFTISRDNAKNTVYLQMNSLKPEDTAVYYCNADTVYTRTAPYDYWGQGSQVTVSS | low polyreactivity
40 | QVQLVESGGGLVQAGGSLRLSCAASGSIFQENAMGWYRQAPGKERELVAAINTGSITSYADSVKGRFTISRDNAKNTVYLQMNSLKPEDTAVYYCAADSFSLYDSWGQGTQVTVSS | low polyreactivity
41 | QVQLVESGGGLVQAGGSLRLSCAASGSIFNYYDMGWYRQAPGKERELVAAIDLTGGTTYYADSVKGRFTISRDNAKNTVYLQMNSLKPEDTAVYYCAAQYIRSSWWGYDYWGQGTQVSVSS | low polyreactivity
42 | QVQLVESVGGLVQAGGSLRLSCAASGITFDDYAMGWYRQAPGKERELVAVISSSGGSTYYADSVKGRFTISRDNAKNTVYLQMNSLKPEDTAVYYCAARFEVWYTRRVLLGEYDYWGQGTQVTVSS | low polyreactivity
43 | QVQLVESGGGLVQAGGSLRLSCAASGSIFYPYAMGWYRQAPGKERELVAAITWSGGDTYYADSVKGRFTISRDKAKYTDYLQMNSLKPEDTAVYYSAAEWNVSPYDYWGQGTQVTVSS | low polyreactivity

Source: the nanobody polyreactivity screen of Harvey et al. (2022)
